The source of these data is the DeepSol protein solubility set.

This data set is described as follows: soluble on expression in E. coli; label from the status in PepcDB or PDB records.
On to “MKLAELSKEEIQELSMVEVAYLVMKETKEPFNYQDLLKKVAELKGMSEEQMLDRIGYLYTDLNIDGRFVTLGDNRWGLRSWYPLEQVEEEITGPTKKKAKAKAEEEVDELDENIEVFDDEFEDLEDELDELAESEDSDEEDEEFDEGDDIDELDDEFEESDDDL”, for which the “soluble on expression in E. coli” value is reported as “not soluble”.

With “MKLAVAGKGGVGKTTVAAGLIKIMASDYDKIYAVDGDPDSCLGQTLGLSIEEAYAITPLIEMKDEIREKTGDGGLLILNPKVDGDLDKYGRYIDDKIFLIRMGEIKKGGSQCYCRENSFLGSVVSALFLDKKEAVVMDMGAGIEHLTRGTAKAVDMMIAVIEPNLNSIKTGLNIEKLAGDLGIKKVRYVINKVRNIKEEKLIKKHLPEDKILGIIPYNELFIELSLKGEEIWQSTNPAFVNLHDIYQKLRLEVG”, the “soluble on expression in E. coli” value was “soluble”.

For the sequence “MKLDAILWDYDGTLVNSVPKNIEITKAILAIVAPHLTGDNLPKYLHSEANYHYANHAAKNWQELYVDYYGMSHDEMLQAGGLWAEHQEKNQTPVTLFEGIDGVIKEFAQLPHGICSQNSQSNIRRVLSDNGISAPFKSIVGYDDVSNGHQKPDAYSGIKCVESIFGHAENRQLMYIGDHEADTQFARNIEQQLGGQSKVIAVAAAYSGAMPEHWSVQPDYVARTVDELFSIIAQHT”, the “soluble on expression in E. coli” value is given as “not soluble”.

For the sequence “MKLDLIQSMLYNNPKPQDTKEGLSDQDFSIYMDAHTVPFSKYPSYMPAGVLGICTEGNAEIQVGLRKYVICANDILIFMPGFLVSFIKSSPTFTIDYCTFSNVLFYDVINGSIKRFPTGFHTYTQTHCVYSLSQEKAEQFSIYFRLLYNRATSPTYLFTKESITNLLKLPFLELYADYYSTVKEHKVTTLHKEEIGYFFLDLLLKHYKENKEVAFYAEKLHVSSKYLTEALTLVSGKSPKEWIIHYTLQEIYALLENPSISIQEIVQRTRFANLATLRRFFKRHTGTSLLQYRKQDLYKNNQ”, the “soluble on expression in E. coli” value is recorded as “not soluble”.

In the case of “MKLDQIDLNIIEELKKDSRLSMRELGRKIKLSPPSVTERVRQLESFGIIKQYTLEVDQKKLGLPVSCIVEATVKNADYERFKSYIQTLPNIEFCYRIAGAACYMLKINAESLEAVEDFINKTSPYAQTVTHVIFSEIDTKNGRG”, the “soluble on expression in E. coli” value is “soluble”.

“MKLEFNLIIAGVGGQGGLTLSRIIGNAAMIEGYRVRIGETLGMSQRYGSVLSYLRFGEEVYSPLIEEGKADLMLALEPVEALRNARFLSRKSYAIINAYPIHTATTLVGKERYPDLEEIKEAIGKICRVEMRNFQEEADKINPRTLGVLMTGFAWRKGLLPLKKESIIEGIKLTLREKLWDINFRAFERGVELASL”: the “soluble on expression in E. coli” value was “soluble”.

As for “MKLFHRITISLSEDDMKLIEELRRDSGDSLSKIFREAIQLYYNLLKASKAAGVDFRKYFANATRLAFHINGVEQKQFAVIDREIYRVMLKKLQEKVPPESIESDEEFRSAVAGVVKLFEITRDRWSEYTDEQKLEEILTTMEFAGAGTFARVGDKEYIFNTYAESTAITKLIISSVLASAGLKVEIDHTPGKIFIRL”, the “soluble on expression in E. coli” value is “not soluble”.

Take “MKLGYSLSKSNAKNFKFYINGSAMGYKNIIINGAKSWNASPYLNTVSKGRDANPHFIISSSTIDRGATVAVCETWAYKGSKLVAKNEITTFKAFRSLSVGDKTETIAHEFGHGLGLGHVKTKNAIMLDVGFTKKIKPQRDDLNGIKAIYKLEHHHHHH”: the “soluble on expression in E. coli” value is listed as “not soluble”.

“MKLIIAVVQDKDSNRLSEALVKANYRATKLASTGGFLKAGNTTFLIGTEDEHVEEVMSIIKDNCKSRDQLVAPISPMGGNADSYVPYPVEVQVGGATVFVLPVEQFEQY”: the “soluble on expression in E. coli” value is “not soluble”.

For the sequence “MKLIITEDYQEMSRVAAHHLLGYMSKTRRVNLAITAGSTPKGMYEYLTTLVKGKPWYDNCYFYNFDEIPFRGKEGEGVTITNLRNLFFTPAGIKEENIQKLTIDNYREHDQKLAREGGLDLVVLGLGADGHFCGNLPNTTHFHEQTVEFPIQGEMVDIVAHGELGGDFSLVPDSYVTMGPKSIMAAKNLLIIVSGAGKAQALKNVLQGPVTEDVPASVLQLHPSLMVIADKAAAAELAFG”, the “soluble on expression in E. coli” value is given as “soluble”.

Turning to “MKLIWSEESWDDYLYWQETDKRIVKKINEIIKDTRRTPFEGKGKPEPLKHNLSGFWSRRITEEHRLVYAVTDDSLLIAACRYHYLEHHHHHH”, the “soluble on expression in E. coli” value is given as “soluble”.
